Reference: patent US20250186614A1, “COMPACT DRUG RESPONSIVE DOMAINS FOR REGULATION OF FUNCTION/ABUNDANCE AND DELIVERY OF POLYPEPTIDE PAYLOADS” (OBSIDIAN THERAPEUTICS, INC., priority 2022, published 2025)
Positions count from the first letter of the chain named. Numbers in names are those of the source. Like-named read-outs stand apart in the source and are kept apart here.

B1: FKBP-153: FKBP13 DRD Q72R, S79W, Q84E, A117W, M54A; SEQ ID NO: 103 (protein)
chain: HCPIKSRKGDVLHAHYTGKLEDGTEFDSSLPRNQPFVFWLGTGEVIKGWDQGLLGMCEGEKRKLVIPSELGYGERGWPPKIPGGATLVFEVELLKIER
modifications: Description of sequence: FKBP13-AcGFP-mCherry Fusion; Construct Name: FKBP-153; FKBP13 DRD in Construct : FKBP13 (mutated to match FKBP12 active site Q72RS79W Q84E A117W) (DRD M54A)
B2: FKBP-155: FKBP13 DRD Q72R, S79W, Q84R, A117W, M54A; SEQ ID NO: 105 (protein)
chain: B1 chain with E44R
modifications: Description of sequence: FKBP13-AcGFP-mCherry Fusion; Construct Name: FKBP-155; FKBP13 DRD in Construct : FKBP13 (mutated to match FKBP12 active site Q72R S79W Q84R A117W) (DRD M54A)
B3: FKBP-215: combinatorial FKBP13 mutant construct of Table 10, carries M54A (protein)
chain: B1 chain with P3R, W39S, E44G, V45R, K95Y
modifications: Description of sequence: Construct Name: FKBP-215; Mutation(s): Q72R Q84G A117W V85R DRD P43R M54A K135Y
B4: FKBP-228: combinatorial FKBP13 mutant construct of Table 10 (protein)
chain: B1 chain with A14M, W39S, V45R, E97R
modifications: Description of sequence: Construct Name: FKBP-228; Mutation(s): Q72R Q84E A117W V85R DRD E137R
B5: FKBP-157: FKBP13 DRD Q72R, T82W, Q84E, A117W, M54A; SEQ ID NO: 107 (protein)
chain: B1 chain with W39S, T42W, E44R
modifications: Description of sequence: FKBP13-AcGFP-mCherry Fusion; Construct Name: FKBP-157; FKBP13 DRD in Construct : FKBP13 (mutated to match FKBP12 active site Q72R T82W Q84E A117W) (DRD M54A)
B6: FKBP-251: combinatorial FKBP13 mutant construct of Table 10 (protein)
chain: B1 chain with A14M, W39S, V45R, E90F
modifications: Description of sequence: Construct Name: FKBP-251; Mutation(s): Q72R Q84E A117W V85R DRD E130F
B7: FKBP-195: combinatorial FKBP13 mutant construct of Table 10, carries K135Y (protein)
chain: B1 chain with A14M, W39S, V45R, K95Y
modifications: Description of sequence: Construct Name: FKBP-195; Mutation(s): Q72R Q84E A117W V85R DRD K135Y
B8: FKBP-197: FKBP13 DRD-AcGFP construct of Table 10 (protein)
chain: B1 chain with A14M, W39S, V45R, E90R
modifications: Description of sequence: Construct Name: FKBP-197; Mutation(s): Q72R Q84E A117W V85R DRD E130R
B9: FKBP-117: FKBP13 DRD Q72R, Q84E, A117W, V85R; SEQ ID NO: 67 (protein)
chain: B1 chain with A14M, W39S, V45R
modifications: Description of sequence: FKBP13-AcGFP-mCherry Fusion; Construct Name: FKBP-117; FKBP13 DRD in Construct : FKBP13 (mutated to match FKBP12 active site Q72R Q84E A117W) (DRD V85R)
B10: FKBP-202 (protein)
chain: B1 chain with G9S, W39S, V45R
modifications: Description of sequence: Construct Name: FKBP-202; Mutation(s): Q72R Q84E A117W V85R DRD M54A G49S

Key:
Assay type in all cases: cell-based
Jurkat cells [1] = assay: Sirolimus (rapamycin) dose response of FKBP13 constructs stably transduced into Jurkat cells, flow cytometry; details: for Fold Change: rapamycin (sirolimus), Jurkat cells stably transduced, Table 8; for EC90 / Rapamycin FC: rapamycin, Table 14; for Rapamycin FC: fold change; for difference between rapamycin and tacrolimus: ratio of EC50 and fold change, Table 9; for EC50 (tacrolimus)/ EC50 (rapamycin): ratio of Table 7 and Table 8 EC50 values; for EC50 (tacrolimus)/ EC50 (rapamycin) / Fold change (tacrolimus)/ Fold change (rapamycin): Jurkat cells; for Fold change (tacrolimus)/ Fold change (rapamycin): ratio of Table 7 and Table 8 fold changes
Procedure: Normalized EC50 values were calculated from the mCherry normalized GFP MFI values, which accounted for any differences in mCherry intensity between samples.

Jurkat cells [2] = assay: Tacrolimus dose response of FKBP13-AcGFP-mCherry constructs stably transduced into Jurkat cells, GFP MFI by flow cytometry; set-up: Basal: unit not given here; details: for EC90 / Tacrolimus FC: Table 14; for Fold Change: Jurkat cells stably transduced; for Tacrolimus FC: fold change; for basal AcGFP expression: absence of tacrolimus
In short: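 GFP geometric MFI was read by flow cytometry in mCherry+ cells and curve-fitted against tacrolimus dose. Cells were Jurkat E6-1, lentivirus-transduced with FKBP13-AcGFP-mCherry fusion constructs until 10-25% mCherry-positive on day 5 post-transduction.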

[3] = Example 4: dose response of FKBP constructs 160-255, Ec50, Ec90 and fold change (raw and normalized to mCherry); details: for FC (fold change): fold change during initial analysis
Procedure: Additional experiments were performed for constructs FKBP-160-292.

[4] = normalized, read-out: Rapamycin EC90 (Norm)
[5] = read-out: Tacrolimus EC90 (Norm), tacrolimus, normalized
[6] = read-out: Tacrolimus EC90, tacrolimus
[7] = FKBP constructs 160-255, not normalized, read-out: EC90
[8] = normalized to mCherry, read-out: EC90 (Norm)

Molecule	Fold Change (Jurkat cells [1])	EC90 (Jurkat cells [1]; read-out: Rapamycin EC90)	Rapamycin FC (Jurkat cells [1])	EC90 (Jurkat cells [1]; [4])	difference between rapamycin and tacrolimus (Jurkat cells [1])	EC50 (tacrolimus)/ EC50 (rapamycin) (Jurkat cells [1])	Fold change (tacrolimus)/ Fold change (rapamycin) (Jurkat cells [1])	EC90 (Jurkat cells [2]; [5])	EC90 (Jurkat cells [2]; [6])	Fold Change (Jurkat cells [2]; tacrolimus, Table 7)	Tacrolimus FC (Jurkat cells [2]; tacrolimus)	EC90 [3, 7]	FC (fold change) [3]	EC90 [3, 8]	basal AcGFP expression (Jurkat cells [2])	FC (Jurkat cells [2]; tacrolimus, FIG. 35)	Peak (Jurkat cells [2]; tacrolimus, FIG. 35)	FC (Jurkat cells [2]; tacrolimus, FIG. 36)	Peak (Jurkat cells [2]; tacrolimus, FIG. 36)	FC (Jurkat cells [2]; tacrolimus, FIG. 37)	also measured
B1	4.8	1520 nM	6.1	1540 nM	largest difference between rapamycin and tacrolimus	0.20	6.26	383 nM	341 nM	30.07	39.7										
B2	5.6	1140 nM	7.5	1180 nM	largest difference between rapamycin and tacrolimus	0.72	7.44	947 nM	808 nM	41.68	61.3										
B3												388 nM	51.0	390 nM	lowest basal AcGFP expression						Basal (Jurkat cells [2]; FIG. 48, BR1 (Biorep 1)): 65; FC (Jurkat cells [2]; FIG. 48, BR1 (Biorep 1)): 51.05; At 10 uM (Jurkat cells [2]; FIG. 48, BR1 (Biorep 1)): 3318; Basal (Jurkat cells [2]; FIG. 48, BR2 (Biorep 2)): 59.4; FC (Jurkat cells [2]; FIG. 48, BR2 (Biorep 2)): 53.30; At 10 uM (Jurkat cells [2]; FIG. 48, BR2 (Biorep 2)): 3166
B4												116 nM	55.1	124 nM	lowest basal expression						Basal (Jurkat cells [2]; FIG. 41): 112; FC (Jurkat cells [2]; FIG. 41): 85; Peak (Jurkat cells [2]; FIG. 41): 8896; Basal (Jurkat cells [2]; FIG. 42, BR1 (Biorep 1)): 103; FC (Jurkat cells [2]; FIG. 42, BR1 (Biorep 1)): 55.15; At 10 uM (Jurkat cells [2]; FIG. 42, BR1 (Biorep 1)): 5680; Basal (Jurkat cells [2]; FIG. 42, BR2 (Biorep 2)): 99.6; FC (Jurkat cells [2]; FIG. 42, BR2 (Biorep 2)): 60.71; At 10 uM (Jurkat cells [2]; FIG. 42, BR2 (Biorep 2)): 6047
B5	7.92	1010 nM	11.2	1080 nM	largest difference between rapamycin and tacrolimus	0.97	6.48	1320 nM	1140 nM	51.33	63.5										
B6												104 nM	97.5	113 nM	lowest basal expression	92.03	5078	92.03	5078	92.03	Basal (Jurkat cells [2]; FIG. 40): 76; FC (Jurkat cells [2]; FIG. 40): 100; Peak (Jurkat cells [2]; FIG. 40): 7406; Basal (Jurkat cells [2]; FIG. 46, BR1 (Biorep 1)): 64; FC (Jurkat cells [2]; FIG. 46, BR1 (Biorep 1)): 97.61; At 10 uM (Jurkat cells [2]; FIG. 46, BR1 (Biorep 1)): 6247; Basal (Jurkat cells [2]; FIG. 46, BR2 (Biorep 2)): 46.1; FC (Jurkat cells [2]; FIG. 46, BR2 (Biorep 2)): 76.79; At 10 uM (Jurkat cells [2]; FIG. 46, BR2 (Biorep 2)): 3540; Peak (Jurkat cells [2]; tacrolimus, FIG. 37): 5078; FC (Jurkat cells [2]; tacrolimus, FIG. 38): 92.03; Peak (Jurkat cells [2]; tacrolimus, FIG. 38): 5078
B7												165 nM	50.1	140 nM	lowest basal expression	89.61	4362	89.61	4362	89.61	Basal (Jurkat cells [2]; FIG. 39): 68.4; FC (Jurkat cells [2]; FIG. 39): 90; Peak (Jurkat cells [2]; FIG. 39): 5808; Basal (Jurkat cells [2]; FIG. 50): 75.5; FC (Jurkat cells [2]; FIG. 50): 61.07; At 10 uM (Jurkat cells [2]; FIG. 50): 4611; Peak (Jurkat cells [2]; tacrolimus, FIG. 37): 4362; FC (Jurkat cells [2]; tacrolimus, FIG. 38): 89.61; Peak (Jurkat cells [2]; tacrolimus, FIG. 38): 4362; FC (Jurkat cells [2]; tacrolimus, FIGS. 29 and 30): 66; FC (Jurkat cells [2]; tacrolimus, FIGS. 31 and 32): 66; FC (Jurkat cells [2]; tacrolimus, FIGS. 33 and 34): 66
B8												1090 nM	101.1	1190 nM							Basal (Jurkat cells [2]; FIG. 46, BR1 (Biorep 1)): 70.7; FC (Jurkat cells [2]; FIG. 46, BR1 (Biorep 1)): 101.12; At 10 uM (Jurkat cells [2]; FIG. 46, BR1 (Biorep 1)): 7149; Basal (Jurkat cells [2]; FIG. 46, BR2 (Biorep 2)): 55.2; FC (Jurkat cells [2]; FIG. 46, BR2 (Biorep 2)): 72.21; At 10 uM (Jurkat cells [2]; FIG. 46, BR2 (Biorep 2)): 3986
B9	6.9	170 nM	7.6	171 nM		0.20	2.70	27.2 nM	25 nM	18.6	21.2					24.07	5193	24.07	5193	24.07	Fold Change (Jurkat cells [2]; tacrolimus, Table 6): 15.75; Peak (Jurkat cells [2]; tacrolimus, FIG. 37): 5193; FC (Jurkat cells [2]; tacrolimus, FIG. 38): 24.07; Peak (Jurkat cells [2]; tacrolimus, FIG. 38): 5193
B10												1010 nM	46.2	1060 nM							
